Patent US20220396819A1, “METHOD FOR PRODUCING PEPTIDE HAVING PHYSIOLOGICAL ACTIVITY, AND PEPTIDE COMPRISING SHORT LINKER” (priority 2019, published 2022)
Positions of bridges follow the written chain, without caps; N, C: chain ends. No end group written: not given here.

Tests used:
[1] = molecular target: T1, Met (Homo sapiens, UniProt P08581); experiment: Met activation ability, SRE luciferase assay in HEK293E cells (HGF-Erk-SRE pathway); assay type: cell-based; conditions: for Met activation ability: Example 37, cell-free translation solution diluted, FIG. 69
T1 construct: endogenous in cells; host or cells: HEK293E
Protocol: (§1) The Met activation ability of the HGF-PAS dimer peptide was evaluated by luciferase assay. To 25 μL of Opti-MEM medium (Thermo Fisher Scientific), 0.6 μL of Attractene Transfection Reagent (QIAGEN) was added, and the mixture was incubated at room temperature for 5 minutes. To the above mixed solution, a mixed solution of 25 μL of Opti-MEM and 1 μL of SRE reporter vector (QIAGEN) was added, and the mixture was incubated at room temperature for 20 minutes. This mixed solution was added to a 96-well plate, over which 40,000 cell/well HEK293E cells were seeded and incubated overnight in a 5% CO2 incubator at 37° C. After transfection, all culture supernatant was removed, 100 μL of Opti-MEM medium (evaluation basal medium) containing 0.5% FBS (Thermo Fisher Scientific), 1% non-essential amino acid solution (Thermo Fisher Scientific), and penicillin-streptomycin (Nacalai Tesque) was added, and incubation was performed at 37° C. for 4 hours, and thereby the cells were starved.
To the evaluation basal medium, 0 to 200 ng/mL HGF was added, or 0 to 800 ng/mL AET-PAS-aMD4dY-PEG11, AET-PAS-aMD4-PEG11, or AET-PAS-aMD4-PEG3 was added, or a culture supernatant containing PAS-aMD4dY-PEG11, PAS-aMD4-PEG11, or PAS-aMD4-PEG3 was added so as to be diluted 10-fold with respect to the medium, and the evaluation basal medium was added in an amount of 100 μL to the cells. The cells were stimulated by culturing overnight in a 5% CO2 incubator at 37° C.
The signal intensities were detected using Dual-Luciferase Reporter Assay System (Promega). The medium supernatant in an amount of 100 μL was removed, 50 μL of Glo reagent was added, and the cells were lysed for 10 minutes at room temperature. The luminescence of Firefly luciferase emitted from the cell lysate solution was detected with a plate reader to quantify the activation of the HGF-Erk-SRE pathway. Subsequently, 50 μL of Glo & Stop reagent solution was added, and after 10 minutes, the luminescence of the internal standard Renilla luciferase was detected to quantify the number of cells. The signal activity of each sample was quantified as SRE activity=(Firefly luciferase luminescence intensity)/(Renilla luciferase luminescence intensity). The relative signal activity values for the samples without addition of the evaluation compound were determined and used as relative receptor activity.
as §1, with “peptide linker variant” for “peptide”, “0.6 L” for “0.6 μL”
To the evaluation basal medium, 0 to 100 ng/mL HGF was added, or a culture supernatant containing AET-aMD4dY-PAS8, AET-aMD4dY-PAS22 (the same molecule as AET-PAS-aMD4dY-PEG11), AET-aMD4dY-PAS49, AET-aMD4dY-PAS100, AET-aMD4dY-PAS200, AET-aMD4dY-GS15, or AET-aMD4dY-GS22 was added to the medium so as to be diluted at a predetermined ratio, and the evaluation basal medium was added in an amount of 100 μL to the cells. The cells were stimulated by culturing overnight in a 5% CO2 incubator at 37° C.
The Met activation ability of the stabilized HGF-PAS dimer peptide was evaluated by luciferase assay. […]

[2] = molecular target: Met (HGF receptor) (UniProt P08581 25-1390, limits assumed); experiment: cell-based or functional assay
Chain of Met (HGF receptor) (P08581 25-1390 limits assumed): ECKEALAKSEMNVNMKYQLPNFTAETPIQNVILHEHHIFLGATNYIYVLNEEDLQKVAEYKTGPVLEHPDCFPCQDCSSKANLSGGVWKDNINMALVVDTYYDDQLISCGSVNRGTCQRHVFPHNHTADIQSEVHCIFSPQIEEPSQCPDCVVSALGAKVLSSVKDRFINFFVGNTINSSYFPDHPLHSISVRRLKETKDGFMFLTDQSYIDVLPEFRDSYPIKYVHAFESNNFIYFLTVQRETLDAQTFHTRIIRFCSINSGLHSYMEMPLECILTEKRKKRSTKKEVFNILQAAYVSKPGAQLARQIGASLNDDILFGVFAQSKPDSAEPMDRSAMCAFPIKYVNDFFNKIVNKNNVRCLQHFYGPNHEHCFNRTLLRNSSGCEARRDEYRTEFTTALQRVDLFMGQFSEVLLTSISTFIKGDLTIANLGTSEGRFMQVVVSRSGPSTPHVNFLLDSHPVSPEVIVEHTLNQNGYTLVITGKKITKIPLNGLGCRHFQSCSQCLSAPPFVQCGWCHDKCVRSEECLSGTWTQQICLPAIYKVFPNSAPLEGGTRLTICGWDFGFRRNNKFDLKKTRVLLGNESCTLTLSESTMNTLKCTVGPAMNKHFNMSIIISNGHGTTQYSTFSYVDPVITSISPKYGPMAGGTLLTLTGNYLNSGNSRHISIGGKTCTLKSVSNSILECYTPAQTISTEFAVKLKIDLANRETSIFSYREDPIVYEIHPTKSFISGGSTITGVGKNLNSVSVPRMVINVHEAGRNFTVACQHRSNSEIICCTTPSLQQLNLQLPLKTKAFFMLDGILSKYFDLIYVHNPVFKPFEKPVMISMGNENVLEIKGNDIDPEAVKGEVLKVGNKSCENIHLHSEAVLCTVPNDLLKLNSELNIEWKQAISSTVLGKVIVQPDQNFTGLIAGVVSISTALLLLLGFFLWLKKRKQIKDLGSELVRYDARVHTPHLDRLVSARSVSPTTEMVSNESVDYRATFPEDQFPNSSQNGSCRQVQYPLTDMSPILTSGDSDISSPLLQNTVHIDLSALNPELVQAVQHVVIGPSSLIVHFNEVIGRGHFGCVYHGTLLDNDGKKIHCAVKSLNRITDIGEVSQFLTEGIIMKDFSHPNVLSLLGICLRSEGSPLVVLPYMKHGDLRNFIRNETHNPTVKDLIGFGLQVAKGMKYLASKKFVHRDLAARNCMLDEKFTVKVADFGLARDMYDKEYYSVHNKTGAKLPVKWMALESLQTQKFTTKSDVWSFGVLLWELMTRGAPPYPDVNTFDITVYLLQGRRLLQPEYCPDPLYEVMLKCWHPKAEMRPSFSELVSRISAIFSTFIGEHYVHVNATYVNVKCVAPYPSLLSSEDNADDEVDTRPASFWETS

T1 sequence (P08581 25-1390): as the sequence (P08581 25-1390 limits assumed) above

Row | Molecule | Emax (%) [2] [%] | also measured
1 | CRQFNRRTHEVWNLDC (disulfide 1-16) [aMD4dY, reference compound] |  | signal activation ability, dimer versus monomer ([1]; Example 43, FIG. 76): showed no signal activation ability
2 | CRQFNRRTHEVWNLDCGAAPAAPAPAAPAAPAPAAPAAPGCRQFNRRTHEVWNLDC (disulfide 1-16, 41-56; also: PEG11) [PAS-aMD4dY-PEG11] |  | maximum activity compared with HGF ([1]; Example 6, AET form 0 to 800 ng/mL, PAS form culture supernatant diluted 10-fold): comparable to 100 ng/mL HGF
3 | MAETCRQFNRRTHEVWNLDCGAAPAAPAPAAPAAPAPAAPAAPGCRQFNRRTHEVWNLDC (disulfide 5-20, 45-60) [MAET-aMD4dY-PAS22] |  | Met activation ability [1]: had Met activation ability
4 | MAETCRQFNRRTHEVWNLDCGAAPAAPAPGCRQFNRRTHEVWNLDC (disulfide 5-20, 31-46) [MAET-aMD4dY-PAS8] |  | Met activation ability [1]: had Met activation ability
5 | AET-PAS-aMD4dY-PEG11 (disulfide 4-19, 44-59; also: PEG11 in name, stated same as AET-aMD4dY-PAS22) peptide: AETCRQFNRRTHEVWNLDCGAAPAAPAPAAPAAPAPAAPAAPGCRQFNRRTHEVWNLDC | 100 | 
6 | AETCRQFNRRTHEVWNLDCGAAPAAPAPGCRQFNRRTHEVWNLDC (disulfide 4-19, 30-45) [AET-aMD4dY-PAS8] | 56.4 | 
7 | AET-aMD4dY-PAS49 (two disulfide bonds in the molecule) peptide: AETCRQFNRRTHEVWNLDCGAAPAAPAPAAPAAPAPAAPAAPAPAAPAAPAPAAPAAPAPAAPAAPAPAGCRQFNRRTHEVWNLDC | 82.8 | 
8 | AET-aMD4dY-PAS100 (two disulfide bonds in the molecule) peptide: AETCRQFNRRTHEVWNLDCGAAPAAPAPAAPAAPAPAAPAAPAPAAPAAPAPAAPAAPAPAAPAAPAPAAPAAPAPAAPAAPAPAAPAAPAPAAPAAPAPAAPAAPAPAAPAAPAPAAPAGCRQFNRRTHEVWNLDC | 47.2 | 
9 | AET-aMD4dY-PAS200 (two disulfide bonds in the molecule) peptide: AETCRQFNRRTHEVWNLDCGAAPAAPAPAAPAAPAPAAPAAPAPAAPAAPAPAAPAAPAPAAPAAPAPAAPAAPAPAAPAAPAPAAPAAPAPAAPAAPAPAAPAAPAPAAPAAPAPAAPAAPAPAAPAAPAPAAPAAPAPAAPAAPAPAAPAAPAPAAPAAPAPAAPAAPAPAAPAAPAPAAPAAPAPAAPAAPAPAAPAAPAPAAPAAPAPAAPAAPAPGCRQFNRRTHEVWNLDC | 20.4 | 
10 | AET-aMD4dY-GS15 (disulfide 4-19, 37-52) peptide: AETCRQFNRRTHEVWNLDCGGGGGSGGGGSGGGGSGCRQFNRRTHEVWNLDC | 45.8 | 
11 | AET-aMD4dY-GS22 (disulfide 4-19, 44-59) peptide: AETCRQFNRRTHEVWNLDCGGGGGSGGGGSGGGGSGGGGSGGGCRQFNRRTHEVWNLDC | 32.3 | 
12 | MAETCYRQFNRRTHEVWNLDCGAAPAAPAPAAPAAPAPAAPAAPGCRQFNRRTHEVWNLDC (disulfide 5-21, 46-61) MAETCYRQFNRRTHEVWNLDCGAAPAAPAPAAPAAPAPAAPAAPGCRQFNRRTHEVWNLDC |  | Met activation ability [1]: had Met activation ability
13 | AETCRQFNRRTHEVWNLDCGAAPAAPAPAAPAAPAPAAPAAPGCRQFNRRTHEVWNLDCGAAPAAPAPAAPAAPAPAAPAAPGCRQFNRRTHEVWNLDC (AET-aMD4dY-PAS22-Trimer; DISULFID (4)..(19) Disulfid bridge between Cys-4 and Cys-19; DISULFID (44)..(59) Disulfid bridge between Cys-44 and Cys-59; DISULFID (84)..(99) Disulfid bridge between Cys-84 and Cys-99) AETCRQFNRRTHEVWNLDCGAAPAAPAPAAPAAPAPAAPAAPGCRQFNRRTHEVWNLDCGAAPAAPAPAAPAAPAPAAPAAPGCRQFNRRTHEVWNLDC |  | signal activation ability, trimer versus dimer ([1]; Example 42, culture supernatant diluted, FIG. 75): signal activation ability similar to the dimer peptide
